Eight molecules from patent US20220267412A1 (SERPLUS TECHNOLOGY, published 2022) can be followed below.

T1: human neutrophil elastase (human, UniProt P08246 30-247, limits assumed)
T1 sequence (looked up): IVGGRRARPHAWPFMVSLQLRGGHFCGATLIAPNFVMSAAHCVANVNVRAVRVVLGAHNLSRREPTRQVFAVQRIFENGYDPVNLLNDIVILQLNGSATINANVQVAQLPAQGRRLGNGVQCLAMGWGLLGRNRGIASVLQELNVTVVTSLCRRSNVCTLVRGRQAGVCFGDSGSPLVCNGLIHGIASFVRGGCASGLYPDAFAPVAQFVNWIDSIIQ

T2: neutrophil proteinase 3 (UniProt P24158 28-248, limits assumed)
T2 sequence (looked up): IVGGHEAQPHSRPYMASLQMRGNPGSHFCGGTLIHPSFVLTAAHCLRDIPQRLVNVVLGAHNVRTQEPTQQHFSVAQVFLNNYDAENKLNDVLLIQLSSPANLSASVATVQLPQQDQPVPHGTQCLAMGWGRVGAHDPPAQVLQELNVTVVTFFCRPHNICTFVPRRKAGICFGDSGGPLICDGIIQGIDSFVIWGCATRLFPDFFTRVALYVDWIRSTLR

B1: recombinant human serpin B1, wild type (rhsB1-cys344), reduced active monomer (other)
chain: MEQLSSANTRFALDLFLALSENNPAGNIFISPFSISSAMAMVFLGTRGNTAAQLSKTFHFNTVEEVHSRFQSLNADINKRGASYILKLANRLYGEKTYNFLPEFLVSTQKTYGADLASVDFQHASEDARKTINQWVKGQTEGKIPELLASGMVDNMTKLVLVNAIYFKGNWKDKFMKEATTNAPFRLNKKDRKTVKMMYQKKKFAYGYIEDLKCRVLELPYQGEELSMVILLPDDIEDESTGLKKIEEQLTLEKLHEWTKPENLDFIEVNVSLPRFKLEESYTLNSDLARLGVQDLFNSSKADLSGMSGARDIFISKIVHKSFVEVNEEGTEAAAATAGIATFCMLMPEENFTADHPFLFFIRHNSSGSILFLGRFSSP
B2: human serpin B1 C344G variant (other)
chain: B1 chain with C344G
B3: rhsB1M*, post-translationally modified (oxidized) monomeric form of rhsB1-cys344 (other)
chain: B1 chain
modifications: Cys-344 in an irreversibly oxidized state (chemical nature of the modification not determined)
B4: rhsB1D, intermolecular disulfide-bonded dimeric form of rhsB1-cys344 (other)
chain: B1 chain
modifications: intermolecular disulfide bond Cys-344:Cys-344 between the two monomers
B5: human serpin B1 C344V variant (other)
chain: B1 chain with C344V
B6: peroxynitrite oxidized (inactivated) wild-type rhsB1 (other)
chain: B1 chain
modifications: oxidized by peroxynitrite (Cys-344 per the filing; chemical nature not determined)
B7: human serpin B1 C344A variant (other)
chain: B1 chain with C344A
B8: human neutrophil cathepsin G (enzyme, UniProt P08311 21-244, looked up)
chain: IIGGRESRPHSRPYMAYLQIQSPAGQSRCGGFLVREDFVLTAAHCWGSNINVTLGAHNIQRRENTQQHITARRAIRHPQYNQRTIQNDIMLLQLSRRVRRNRNVNPVALPRAQEGLRPGTLCTVAGWGRVSMRRGTDTLREVQLRVQRDRQCLRIFGSYDPRRQICVGDRRERKAAFKGDSGGPLLCNNVAHGIVSYGKSSGVPPEVFTRVSSFLPWIRTTMRS
notes: Bought purified enzyme; also called CatG

Where a chain is given by its changes, count along the chain named. Numbers in names are those of the source.

For test [1], the target named is TLCK-treated bovine alpha chymotrypsin (bovine, UniProt P00766 1-13; P00766 16-146; P00766 149-245). The experiment in a line: cell-based or functional assay.
For test [2], the target named is B8. The experiment in a line: cell-based or functional assay.
The target of test [3] is porcine pancreatic elastase (porcine, UniProt P00772 27-266). The experiment in a line: cell-based or functional assay.
porcine pancreatic elastase, sequence (P00772 27-266): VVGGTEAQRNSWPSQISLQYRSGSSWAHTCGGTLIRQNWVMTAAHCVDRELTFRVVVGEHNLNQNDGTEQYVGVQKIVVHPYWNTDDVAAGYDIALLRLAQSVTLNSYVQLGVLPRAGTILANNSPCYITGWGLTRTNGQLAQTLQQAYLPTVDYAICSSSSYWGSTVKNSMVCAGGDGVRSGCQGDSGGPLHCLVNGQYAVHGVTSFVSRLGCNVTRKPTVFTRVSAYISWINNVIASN
In test [4] the target is T1, human neutrophil elastase. Kind of test: cell-based or functional assay.
The next test concerns the target T2, neutrophil proteinase 3. The experiment in a line: cell-based or functional assay.
The target in test [5] is B4. The experiment in a line: SDS-PAGE of enzyme:serpin complexes, no 2-ME.
For test [6], the target named is B3. Kind of test: SDS-PAGE of enzyme:serpin complexes, no 2-ME.

As to B1, in test [1], the “inhibition of chymotrypsin, monomer against dimer” value was 2 fold more effective than rhsB1D and the “stoichiometry of inhibition (SOI), with 2-ME” value is ~0.5 molar ratio inhibitor:enzyme. In addition, in test [2], the “SOI with CatG against SOI with BC” value is ~2 fold of the SOI with BC; the “inhibition of CatG, reduced dimer against unreduced dimer” value is ~2 fold against the unreduced dimer; the “inhibition of cathepsin G, monomer against dimer” value was 2 fold more effective than rhsB1D. The “amount of purified protein to fully inhibit PPE (typically 160 nM, 200 uL, +40 mM 2-ME)” value in test [3] is 1 µg. Further, the “stoichiometry of inhibition (SOI)” value in test [4] was ~2.1 molar ratio inhibitor:enzyme.

Regarding B2, the “amount of purified protein to fully inhibit PPE (typically 160 nM, 200 uL, +40 mM 2-ME)” value in test [3] is 3.5 µg.

Regarding B3, in test [1], the “stoichiometry of inhibition (SOI), with or without 2-ME” value is ~3 molar ratio inhibitor:enzyme. In addition, the “stoichiometry of inhibition (SOI), with 2-ME” value in test [4] is ~13 molar ratio inhibitor:enzyme.

Consider B4, for which the “stoichiometry of inhibition (SOI), no 2-ME” value in test [1] was ~1 molar ratio inhibitor:enzyme. In test [2], the “SOI with CatG against SOI with BC” value is ~2 fold of the SOI with BC.

With B5, in test [3], the “amount of purified protein to fully inhibit PPE (typically 160 nM, 200 uL, +40 mM 2-ME)” value amounted to 1.5 µg.

For the molecule B6, the “loss of PR3 inhibitory activity, 2-fold molar excess of inhibitor” value with neutrophil proteinase 3 was ~40 % of inhibitory activity lost.

As for B7, in test [3], the “amount of purified protein to fully inhibit PPE (typically 160 nM, 200 uL, +40 mM 2-ME)” value is 1 µg.

For B8, the binding result in test [5] and in test [6] was “binds” throughout.
